Measurements as given in article doi:10.1101/2021.10.14.464379 (bioRxiv, 2021).

Molecular target: the molecule itself
Assay: SAXS

B1: Ipomoea batatas BAM5 (sweet potato beta-amylase) (enzyme)
chain: APIPGVMPIGNYVSLYVMLPLGVVNADNVFPDKEKVEDELKQVKAGGCDGVMVDVWWGIIEAKGPKQYDWSAYRELFQLVKKCGLKIQAIMSFHQCGGNVGDAVFIPIPQWILQIGDKNPDIFYTNRAGNRNQEYLSLGVDNQRLFQGRTALEMYRDFMESFRDNMADFLKAGDIVDIEVGCGAAGELRYPSYPETQGWVFPGIGEFQCYDKYMVADWKEAVKQAGNADWEMPGKGAGTYNDTPDKTEFFRPNGTYKTDMGKFFLTWYSNKLIIHGDQVLEEANKVFVGLRVNIAAKVSGIHWWYNHVSHAAELTAGFYNVAGRDGYRPIARMLARHHATLNFTCLEMRDSEQPAEAKSAPQELVQQVLSSGWKEYIDVAGENALPRYDATAYNQMLLNVRPNGVNLNGPPKLKMSGLTYLRLSDDLLQTDNFELFKKFVKKMHADLDPSPNAISPAVLERSNSAITIDELMEATKGSRPFPWYDVTDMPVDGSNPFD
  stoichiometry N: 4
